B1: TolAIII (TolA domain III, residues 296-421), wild type (domain or fragment, E. coli, UniProt P19934 296-421, looked up)
chain: DIFGELSSGKNAPKTGGGAKGNNASPAGSGNTKNNGASGADINNYAGQIKSAIESKFYDASSYAGKTCTLRIKLAPDGMLLDIKPEGGDPALCQAALAAAKLAKIPKPPSQAVYEVFKNAPLDFKP
notes: TolA, E. coli, 421-residue protein; C-terminal domain III, residues 296-421, soluble truncate lacking TolAI-II; also called TolA_(III296–421); WT TolAIII
B2: Colicin N translocation domain, ColN-T (ColN 1-90) (domain or fragment)
chain: MGSNGADNAHNNAFGGGKNPGIGNTSGAGSNGSASSNRGNSNGWSWSNKPHKNDGFHSDGSYHITFHGDNNSKPKPGGNSGNRGNNGDGA
notes: Colicin N, disordered N-terminal translocation (T) domain, residues 1-90; also called ColN-T_(1–90); T_(1–90)
B3: G3p-N1, N-terminal (N1) domain of gene-3-protein of filamentous bacteriophage M13 (domain or fragment, UniProt P69168 19-104, looked up)
chain: AETVESCLAKPHTENSFTNVWKDDKTLDRYANYEGCLWNATGVVVCTGDETQCYGTWVPIGLAIPENEGGGSEGGGSEGGGSEGGG
notes: Gene-3-protein (G3p, minor coat protein), filamentous bacteriophage M13, N1 domain; also called G3p-sN1

Conditions in all cases: both partners purified
In one test the target is T1, TolB DGSY-AGAA (UniProt P0A855 22-430, DGSY-AGAA).
T1 construct: TolB with DGSY (109-112) changed to AGAA
The test can be described thus: SPR; TolAIII (645 RU) amine-coupled to CM5; WT TolB or TolB mutants passed over (5 µM in Fig. 4e); 1:1 Langmuir fits and steady-state affinity; HEPES-EP, 25 °C.

In a further test the target is T2, TolB, wild type (UniProt P0A855 22-430).
T2 construct: TolB, 47 kDa two-domain soluble periplasmic protein; also called WT TolB
The test is described as above.

Test [1] deals with B1. The test can be described thus: SPR; TolAIII WT, D418P or K420P amine-coupled to a CM5 chip (~550 RU; 155 RU TolAIII for ColN-T kinetics); concentration series of analyte (ColN-T, G3p-N1 0.2-50 µM; G3p-N1 V44P up to 250 µM); Biacore X-100, 25 °C, HEPES-EP (10 mM HEPES pH 7.4, 150 mM NaCl, 3.4 mM EDTA, 0.05 % P20); blank surface subtracted; kinetic fits and steady-state affinity. A general note: SPR reads the build-up and loss of mass on a sensor chip optically.

Among the data in paper PMC4339652, “Antibacterial toxin colicin N and phage protein G3p compete with TolB for a binding site on TolA” (Microbiology, 2015) are Kd, koff and kon values, retold here.

Where “and” joins values, the source holds several entries; their conditions need not be identical. Equal values may be shown once.

What is called Kd is the constant that tells how readily two partners part at equilibrium. A lower Kd goes with higher affinity. What is called koff is the rate constant with which the complex falls apart. As a reminder, the kon is a measure of how fast the partners come together. A high value points to faster complex formation.

B1: in the test with TolB DGSY-AGAA, the Kd is 39 µM and 48.3 µM; the koff amounted to 0.1 ± 0.002 s⁻¹; the kon amounted to 2710 M⁻¹ s⁻¹. In the test with TolB, wild type, the Kd is 37 µM and 43.2 µM; the koff came out at 0.3 ± 0.004 s⁻¹; the kon came to 8270 M⁻¹ s⁻¹.

As for B2, in test [1], the Kd worked out at 1.8 ± 0.2 µM.

For B3, in test [1], the Kd is 15 µM and 11.9 µM; the koff was found to be 0.31 ± 0.002 s⁻¹; the kon is 20600 M⁻¹ s⁻¹.
